Data reported in ChEMBL document CHEMBL1138116, “Synthesis and reactivity with beta-lactamases of a monobactam bearing a retro-amide side chain” (Bioorg Med Chem Lett, 2006).

How the values were obtained:
[1] = substrate: O=C(NCc1ccccc1)C1CN(S(=O)(=O)O)C1=O; test: (§1) Binding affinity to class A beta lactamase of Staphylococcus aureus PC1
[2] = substrate: O=C(Cc1ccccc1)N[C@H]1CN(S(=O)(=O)O)C1=O; test: as §1
[3] = substrate: O=C(NCc1ccccc1)C1CN(S(=O)(=O)O)C1=O; test: (§2) Binding affinity to TEM class A beta lactamase from the TEM2 plasmid; conditions: Escherichia coli
[4] = substrate: O=C(Cc1ccccc1)N[C@H]1CN(S(=O)(=O)O)C1=O; test: as §2; conditions: Escherichia coli
[5] = substrate: O=C(NCc1ccccc1)C1CN(S(=O)(=O)O)C1=O; test: (§3) Binding affinity to class D beta lactamase OXA1 of Escherichia coli
[6] = substrate: O=C(Cc1ccccc1)N[C@H]1CN(S(=O)(=O)O)C1=O; test: as §3
[7] = substrate: O=C(NCc1ccccc1)C1CN(S(=O)(=O)O)C1=O; test: (§4) Binding affinity to class C beta lactamase of Enterobacter cloacae P99
[8] = substrate: O=C(Cc1ccccc1)N[C@H]1CN(S(=O)(=O)O)C1=O; test: as §4

B1: Beta-lactamase (Staphylococcus aureus), P00807 (protein)
chain: MKKLIFLIVIALVLSACNSNSSHAKELNDLEKKYNAHIGVYALDTKSGKEVKFNSDKRFAYASTSKAINSAILLEQVPYNKLNKKVHINKDDIVAYSPILEKYVGKDITLKALIEASMTYSDNTANNKIIKEIGGIKKVKQRLKELGDKVTNPVRYEIELNYYSPKSKKDTSTPAAFGKTLNKLIANGKLSKENKKFLLDLMLNNKSGDTLIKDGVPKDYKVADKSGQAITYASRNDVAFVYPKGQSEPIVLVIFTNKDNKSDKPNDKLISETAKSVMKEF
Km [1]: 300 µM | Km [2]: 70 µM

B2: Beta-lactamase TEM (Escherichia coli), P62593 (protein)
chain: MSIQHFRVALIPFFAAFCLPVFAHPETLVKVKDAEDQLGARVGYIELDLNSGKILESFRPEERFPMMSTFKVLLCGAVLSRVDAGQEQLGRRIHYSQNDLVEYSPVTEKHLTDGMTVRELCSAAITMSDNTAANLLLTTIGGPKELTAFLHNMGDHVTRLDRWEPELNEAIPNDERDTTMPAAMATTLRKLLTGELLTLASRQQLIDWMEADKVAGPLLRSALPAGWFIADKSGAGERGSRGIIAALGPDGKPSRIVVIYTTGSQATMDERNRQIAEIGASLIKHW
Km [3]: 2500 µM | Km [4]: 6800 µM

B3: Beta-lactamase OXA-1 (Escherichia coli), P13661 (protein)
chain: MKNTIHINFAIFLIIANIIYSSASASTDISTVASPLFEGTEGCFLLYDASTNAEIAQFNKAKCATQMAPDSTFKIALSLMAFDAEIIDQKTIFKWDKTPKGMEIWNSNHTPKTWMQFSVVWVSQEITQKIGLNKIKNYLKDFDYGNQDFSGDKERNNGLTEAWLESSLKISPEEQIQFLRKIINHNLPVKNSAIENTIENMYLQDLDNSTKLYGKTGAGFTANRTLQNGWFEGFIISKSGHKYVFVSALTGNLGSNLTSSIKAKKNAITILNTLNL
Km [5]: 2300 µM | Km [6]: 29 µM

B4: Beta-lactamase class C (Enterobacter cloacae), Q59401 (protein)
chain: MMKKSLCCALLLGISCSALATPVSEKQLAEVVANTVTPLMKAQSVPGMAVAVIYQGKPHYYTFGKADIAANKPVTPQTLFELGSISKTFTGVLGGDAIARGEISLDDPVTRYWPQLTGKQWQGIRMLDLATYTAGGLPLQVPDEVTDNASLLRFYQNWQPQWKPGTTRLYANASIGLFGALAVKPSGMPYEQAMTTRVLKPLKLDHTWINVPKAEEAHYAWGYRDGKAVRAVRVSPGMLDAQAYGVKTNVQDMANWVMANMAPENVADASLKQGIALAQSRYWRIGSMYQGLGWEMLNWPVEANTVVEGSDSKVALAPLPVAEVNPPAPPVKASWVHKTGSTGGFGSYVAFIPEKQIGIVMLANTSYPNPARVEAAYHILEALQ
Km [7]: 75 µM | Km [8]: 1000 µM
